{
  "source": "paper PMC12771579",
  "about": "“Distinct classes of gut bacterial molybdenum-dependent enzymes produce urolithins” (Proceedings of the National Academy of Sciences of the …, 2025)",
  "test_in_all_cases": "continuous absorbance assay, methyl viologen, initial rates",
  "settings_in_all_cases": "200 µM methyl viologen, 100 µM sodium dithionite, 20 mM MOPS, 300 mM NaCl, pH 7.0, 30 °C, anaerobic",
  "key": {"Eadh3": {"tested_on": "T1, Eadh3", "T1 construct": "recombinant, expressed in G. urolithinfaciens, purified; bis-MGD enzyme without signal peptide; tag only in SI", "format": "biochemical, Ellagibacter isourolithinifaciens", "excerpt": "continuous absorbance assay, methyl viologen, initial rates on Eadh3 | Eadh3 converted urolithin C to isourolithin A via C8-OH dehydroxylation | urolithin M6 was metabolized more readily by Eadh2 than by Eadh3"}, "[1]": {"tested_on": "T2, O=c1oc2c(O)c(O)ccc2c2c(O)c(O)c(O)cc12", "T2 construct": "recombinant, cumate-inducible expression in G. urolithinfaciens (called native host), purified anaerobically; bis-MGD enzyme without signal peptide; tag only in SI", "format": "biochemical, Gordonibacter urolithinfaciens", "excerpt": "continuous absorbance assay, methyl viologen, initial rates on Eadh1 | Eadh1 (C4-OH dehydroxylation of urolithin M5 to urolithin M6) | can accept urolithin D as a substrate to produce urolithin C"}, "[2]": {"tested_on": "T3, O=c1oc2cc(O)ccc2c2c(O)c(O)c(O)cc12", "T3 construct": "recombinant, cumate-inducible expression in G. urolithinfaciens (called native host), purified anaerobically; bis-MGD enzyme without signal peptide; tag only in SI", "format": "biochemical, Gordonibacter urolithinfaciens"}, "[3]": {"tested_on": "T2, O=c1oc2c(O)c(O)ccc2c2c(O)c(O)c(O)cc12", "format": "biochemical, Gordonibacter urolithinfaciens", "remark": "listed apart in the source"}},
  "data": [
    {"compound": "O=c1oc2cc(O)ccc2c2c(O)c(O)c(O)cc12", "note": "[urolithin M6]", "values": [
      {"measurement": "Km", "setting": "Eadh3", "result": "78.4 ± 10.6", "unit": "µM"}
    ]},
    {"compound": "Eadh1 (Gordonibacter sp. 28C)", "values": [
      {"measurement": "Km", "setting": "[1]", "result": "11.8 ± 2.5", "unit": "µM"},
      {"measurement": "kcat", "setting": "[1]", "result": "8.60 ± 0.49", "unit": "s⁻¹"}
    ]},
    {"compound": "Eadh2 (Gordonibacter sp. 28C)", "values": [
      {"measurement": "Km", "setting": "[2]", "result": "13.8 ± 2.9", "unit": "µM"},
      {"measurement": "kcat", "setting": "[2]", "result": "0.65 ± 0.03", "unit": "s⁻¹"},
      {"measurement": "Km", "setting": "[3]", "result": "34.1 ± 6.4", "unit": "µM"},
      {"measurement": "kcat", "setting": "[3]", "result": "0.42 ± 0.02", "unit": "s⁻¹"}
    ]},
    {"compound": "O=c1oc2cc(O)ccc2c2cc(O)c(O)cc12", "note": "[urolithin C]", "values": [
      {"measurement": "Km", "setting": "Eadh3", "result": "19.9 ± 2.1", "unit": "µM"}
    ]}
  ]
}
